Measurements: patent publication US20090170069A1

Target: amyloid β-peptide Aβ40, aggregating sample (soluble oligomers, early intermediates) (UniProt P05067)
Experiment: cell-based or functional assay

B1: TJ10 (beta-sheet mini protein) (designed binder)
chain: MAQTFWLSIQGKTLYWQIRIYAIDAAEAEKIFKQYANDNGIDGEWTYDDATKTFTVTE
Question: How did the ThT fluorescence: share of Aβ40 aggregated after 18 h turn out when B1 was run?
Answer: 38%
